How the values were obtained:
[1] = molecular target: T1, AK155 receptor complex (α-subunit CPNM1 / IL-20Rα and β-subunit IL-10Rβ), endogenous on cell lines (UniProt Q9UHF4 30-553; Q08334 20-325, limits assumed); assay: cell-based or functional assay
T1 sequence (looked up) 1: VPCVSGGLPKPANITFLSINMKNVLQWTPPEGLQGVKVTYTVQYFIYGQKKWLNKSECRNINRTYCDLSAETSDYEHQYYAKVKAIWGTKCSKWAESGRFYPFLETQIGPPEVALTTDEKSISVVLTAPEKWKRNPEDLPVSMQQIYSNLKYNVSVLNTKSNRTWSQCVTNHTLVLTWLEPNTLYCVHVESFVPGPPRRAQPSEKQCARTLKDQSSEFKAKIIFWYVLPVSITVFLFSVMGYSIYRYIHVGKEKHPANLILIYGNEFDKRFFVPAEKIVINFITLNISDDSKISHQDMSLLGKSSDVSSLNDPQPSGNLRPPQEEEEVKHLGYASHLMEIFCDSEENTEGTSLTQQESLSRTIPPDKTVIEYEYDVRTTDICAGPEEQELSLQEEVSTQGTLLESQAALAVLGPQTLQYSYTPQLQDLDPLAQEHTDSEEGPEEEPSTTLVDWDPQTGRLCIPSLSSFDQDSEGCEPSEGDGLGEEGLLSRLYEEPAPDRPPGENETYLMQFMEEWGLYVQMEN
T1 sequence (looked up) 2: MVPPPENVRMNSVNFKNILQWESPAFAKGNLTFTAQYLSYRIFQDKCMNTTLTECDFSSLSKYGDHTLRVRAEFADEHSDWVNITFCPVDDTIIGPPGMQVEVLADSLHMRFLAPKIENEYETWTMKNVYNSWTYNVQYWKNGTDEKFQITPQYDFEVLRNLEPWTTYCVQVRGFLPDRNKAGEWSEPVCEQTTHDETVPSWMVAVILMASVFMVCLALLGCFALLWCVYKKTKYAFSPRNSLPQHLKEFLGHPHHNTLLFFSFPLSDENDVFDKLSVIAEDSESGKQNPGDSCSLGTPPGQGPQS

[2] = molecular target: the molecule itself; assay: SDS-PAGE and western blot of COS-7 cell extracts with and without denaturation (about 36 kDa against about 19 kDa)
Text: Further evidence for the dimeric state of AK155 was provided by analysis of AK155 extracted from mammalian cells. AK155 was cloned and expressed using the eukaryotic expression vector pME18S in COS-7 cells, where the protein was cloned with a FLAG sequence. The cells were extracted and the extracted protein was loaded as is, or heated with reductant, prior to loading on the electrophoresis gel. AK155 was not purified prior to analysis by SDS PAGE. Detection was by rabbit antiserum prepared against AK155 or by anti-FLAG monoclonal antibody.

| Binder | fold increase of IL-8 concentration, HaCaT cells, with against without AK155 [1] [fold] | binding result [2] |
| --- | --- | --- |
| AK155 (preparation not stated) (ligand) KHKQSSFTKSCYPRGTLSQAVDALYIKAAWLKATIPEDRIKNIRLLKKKTKKQFMKNCQFQEQLLSFFMEDVFGQLQLQGCKKIRFVEDFHSLRQKLSHCISCASSAREMKSITRMKRIFYRIGNKGIYKAISELDILLSWIKKLLESSQ | 5 | – |
| AK155 cloned with a FLAG sequence, expressed in COS-7 cells from pME18S (ligand, not shown: small tags and cut ends, Analysed unpurified in COS-7 cell extracts; also called FLAG-tagged AK155) KHKQSSFTKSCYPRGTLSQAVDALYIKAAWLKATIPEDRIKNIRLLKKKTKKQFMKNCQFQEQLLSFFMEDVFGQLQLQGCKKIRFVEDFHSLRQKLSHCISCASSAREMKSITRMKRIFYRIGNKGIYKAISELDILLSWIKKLLESSQ | – | binds |

— patent publication US20030073199A1 (SCHERING, published 2003)
